This is an account of results in paper PMC10866649.

The target in assay [1] is T1, Human dendritic cell–specific ICAM-3–grabbing non-integrin (DC-SIGN; CD209), Q9NNX6.
T1 chain: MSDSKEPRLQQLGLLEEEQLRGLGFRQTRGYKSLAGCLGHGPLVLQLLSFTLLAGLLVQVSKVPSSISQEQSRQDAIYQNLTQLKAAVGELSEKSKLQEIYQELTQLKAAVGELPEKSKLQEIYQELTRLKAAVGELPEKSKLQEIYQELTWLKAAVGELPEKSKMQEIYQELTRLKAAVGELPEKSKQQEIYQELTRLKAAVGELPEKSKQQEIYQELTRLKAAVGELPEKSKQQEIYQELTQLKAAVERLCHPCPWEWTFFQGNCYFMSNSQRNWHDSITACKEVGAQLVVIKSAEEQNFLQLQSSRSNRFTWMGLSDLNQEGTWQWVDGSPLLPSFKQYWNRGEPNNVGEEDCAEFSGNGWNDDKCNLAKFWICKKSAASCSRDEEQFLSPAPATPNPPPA
Put plainly: flow cytometry on cells (hDC-SIGN+/SIGN-R1-/- murine BMDMs). Particulars: type I FcγRs blocked; PBS control = 1; read off a plot.

For assay [2], the target named is Human neonatal Fc receptor (hFcRn), P55899. Put plainly: SPR; biolayer interferometry (citing paragraph). Particulars: chain shown with the change.
Human neonatal Fc receptor (hFcRn), P55899, sequence (P55899 24-297, chain 1 of 2): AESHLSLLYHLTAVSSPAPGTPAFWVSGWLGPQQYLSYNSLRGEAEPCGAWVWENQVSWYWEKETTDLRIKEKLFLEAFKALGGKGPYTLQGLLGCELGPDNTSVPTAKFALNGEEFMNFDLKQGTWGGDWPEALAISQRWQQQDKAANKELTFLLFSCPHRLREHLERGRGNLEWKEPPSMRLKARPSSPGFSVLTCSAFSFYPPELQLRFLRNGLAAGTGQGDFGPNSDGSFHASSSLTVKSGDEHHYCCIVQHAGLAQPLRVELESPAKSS
Human neonatal Fc receptor (hFcRn), P55899, sequence (chain, as listed by the source, chain 2 of 2): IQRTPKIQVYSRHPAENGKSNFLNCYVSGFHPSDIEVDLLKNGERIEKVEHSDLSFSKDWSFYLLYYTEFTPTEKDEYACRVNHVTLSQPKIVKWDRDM

B1: Wild-type human IgG1 Fc (Fc^WT) M252Y; S254T; T256E; H433K; N434F (protein)
chain: DKTHTCPPCPAPELLGGPSVFLFPPKPKDTLYITREPEVTCVVVDVSHEDPEVKFNWYVDGVEVHNAKTKPREEQYNSTYRVVSVLTVLHQDWLNGKEYKCKVSNKALPAPIEKTISKAKGQPREPQVYTLPPSRDELTKNQVSLTCLVKGFYPSDIAVEWESNGQPENNYKTTPPVLDSDGSFFLYSKLTVDKSRWQQGNVFSCSVMHEALKFHYTQKSLSLSPGK
Consider B1, for which the response (fold change in MFI (normalized to PBS)) in assay [1] stood at 1.4. In assay [2], the Kd was determined as 5.2 nM.
